This note sets out measurements from patent US20060287236A1 (BIO RAD LABORATORIES, published 2006).

The target in this assay is T1, transferrin receptor (TfR) (human, UniProt P02786 1-760).
T1 construct: whole, on cells; also called 100 and 200 kDa proteins
Put plainly: immunoprecipitation of surface-biotinylated 293 cell proteins with HFE or FLAG antibodies.

T1 sequence (P02786 whole entry): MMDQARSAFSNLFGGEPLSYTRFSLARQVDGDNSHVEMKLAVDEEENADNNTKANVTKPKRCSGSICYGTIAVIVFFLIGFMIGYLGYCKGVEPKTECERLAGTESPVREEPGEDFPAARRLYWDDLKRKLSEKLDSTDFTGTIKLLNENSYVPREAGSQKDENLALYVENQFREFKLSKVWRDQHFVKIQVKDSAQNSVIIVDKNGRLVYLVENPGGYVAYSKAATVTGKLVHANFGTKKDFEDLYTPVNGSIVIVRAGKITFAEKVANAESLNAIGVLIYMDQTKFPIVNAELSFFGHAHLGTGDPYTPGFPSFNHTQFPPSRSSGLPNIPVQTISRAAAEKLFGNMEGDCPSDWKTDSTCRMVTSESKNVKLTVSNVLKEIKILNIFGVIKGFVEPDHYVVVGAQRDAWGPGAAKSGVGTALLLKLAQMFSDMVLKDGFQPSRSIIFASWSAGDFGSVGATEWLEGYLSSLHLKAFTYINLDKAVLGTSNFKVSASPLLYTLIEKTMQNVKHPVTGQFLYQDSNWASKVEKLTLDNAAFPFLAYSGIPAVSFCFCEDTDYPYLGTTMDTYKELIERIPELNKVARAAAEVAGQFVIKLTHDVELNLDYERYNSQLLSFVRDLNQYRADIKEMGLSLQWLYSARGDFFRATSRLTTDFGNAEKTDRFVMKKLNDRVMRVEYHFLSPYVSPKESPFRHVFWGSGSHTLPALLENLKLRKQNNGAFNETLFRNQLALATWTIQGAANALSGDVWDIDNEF
Method: Cell surface protein biotinylations. Cells (4×10⁶) were seeded into 100 mm dishes and grown overnight to 80% confluency. The plates were moved to 4° C. and gently washed four times with PBS. Suflo-NHS-LC Biotin (Pierce) was added in PBS to a final concentration of 500 g/ml and incubated on ice for 30 mins. The Biotin reagent was removed and the plates washed 4 times with PBS containing 50 mM glycine. Cells were lysed in 500 ml of 25 mM Tris-HCL, pH 7.5 150 mM NaCl plus 0.5% NP-40. […] Precipitated proteins were separated on 4-20% Tris-glycine polyacrylamide gels (Novex), electroblotted to PVDF membranes (Novex) and biotinylated proteins were visualized with 2 μg/ml of streptavidin-HRP (Pierce) followed by ECL detection reagents (Amersham).
Biotinylated proteins were detected with streptavidin-conjugated horseradish peroxidase (HRP).

B1: C282Y HFE mutant over-expressed in 293 cells (other, UniProt Q30201 23-348, looked up)
MHC heavy: RLLRSHSLHYLFMGASEQDLGLSLFEALGYVDDQLFVFYDHESRRVEPRTPWVSSRISSQMWLQLSQSLKGWDHMFTVDFWTIMENHNHSKESHTLQVILGCEMQEDNSTEGYWKYGYDGQDHLEFCPDTLDWRAAEPRAWPTKLEWERHKIRARQNRAYLERDCPAQLQQLLELGRGVLDQQVPPLVKVTHHVTSSVTTLRCRALNYYPQNITMKWLKDKQPMDAKEFEPKDVLPNGDGTYQGWITLAVPPGEEQRYTYQVEHPGLDQPLIVIWEPSPSGTLVIGVISGIAVFVVILFIGILFIILRKRQGSRGAMGHYVLAERE
notes: also called C282Y mutant
As for B1, the binding result is on record as “no binding”.
